No end group written: not given here.
B1: HuScn: Human siderocalin, reference protein in the SYPRO Orange melting assay (protein, UniProt P80188 21-198, looked up)
Neutrophil …: QDSTSDLIPAPPLSKVPLQQNFQDNQFQGKWYVVGLAGNAILREDKDPQKMYATIYELKEDKSYNVTSVLFRKKKCDYWIRTFVPGCQPGEFTLGNIKSYPGLTSYLVRVVSTNYNQHAMVFFKKVSQNREYFKITLYGRTKELTSELKENFIRFSKSLGLPENHIVFPVPIDQCIDG

Columns and labels:
[1] = Resistance to reduction by reduced glutathione (GSH), HPLC; format: physicochemical; conditions: 10 mM reduced glutathione (GSH); HPLC vs non-reduced peptide
Procedure: This example describes stability of designed or engineered peptides under reducing conditions. Peptides that are designed or engineered to interact with one or more target proteins in the cell, such as proteins in the nucleus, are exposed to reducing conditions in the cytosolic compartment of cells. Thus, it is advantageous for peptides of this disclosure to display stability in reducing conditions. Stability of peptides of this disclosure was tested in 10 mM DTT and 10 mM GSH. GSH is a more physiologically relevant reducing agent for testing peptide stability in intracellular conditions. An example of a peptide-target protein interaction is a peptide binding to a TEAD protein.

[2] = Combined resistance grouping of hitchin peptides (FIG. 27, from Table 2 data); format: physicochemical; conditions: FIG. 27 grouping of hitchin peptides
Procedure: As shown by the data in TABLE 2, the tested peptides of the present disclosure show a range of resistance to proteases, reduction, and high temperature. The peptides were classified as high, medium, or low for each condition. […] For example, after a peptide is treated at 100° C., if the HPLC peak of the peptide is mostly absent as compared to HPLC peak of the peptide not treated at 100° C., then the peptide is classified as low or having low resistance to 100° C. After a peptide is treated with reducing conditions, if there is no or very minimal HPLC peak that overlaps with the HPLC peak of the peptide not treated with reducing conditions, then the peptide is classified as low or having low resistance to reducing conditions.
The peptides with the highest resistance data were further analyzed. […] The six peptides that were further tested were peptides comprising the sequences of SEQ ID NO: 27, SEQ ID NO: 24, SEQ ID NO: 6, SEQ ID NO: 10, SEQ ID NO: 12, and SEQ ID NO: 57, which were all hitchins. […] FIG. 27C is a sequence analysis of SEQ ID NO: 27, SEQ ID NO: 24, SEQ ID NO: 6, SEQ ID NO: 10, SEQ ID NO: 12, and SEQ ID NO: 57 from FIG. 27B. FIG. 27C identifies which amino acids are present at each position in SEQ ID NO: 27, SEQ ID NO: 24, SEQ ID NO: 6, SEQ ID NO: 10, SEQ ID NO: 12, and SEQ ID NO: 57. For example, at position one, all peptide sequences comprise a G amino acid residue; at position two, all peptide sequences comprise an S amino acid residue; at position three, all peptide sequences comprise either G, Q, or V amino acid, or null; and at position four, all peptide sequences comprise V, R, or K amino acid, or null. […] SEQ ID NO: 167 and SEQ ID NO: 168 describe sequences of peptides that are particularly resistant to reduction, pepsin, 75° C., and 100° C., which would typically degrade peptides. […] Additionally, SEQ ID NO: 169 describes sequences of peptides that are also particularly resistant to trypsin.

[3] = Resistance to elevated temperature, HPLC; format: physicochemical; conditions: HPLC
How it was run: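 Peptides were incubated at room temperature, 70° C or 100° C for one hour in ddH2O; another protocol used 70° C, 75° C or 100° C for one hour in 0.5 mM PBS, then pelleting and analysis of the supernatant. Remaining peptide was measured by C-18 RP-HPLC, 5–45% acetonitrile/0.1% TFA over 10 min.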

[4] = Intravenous and oral administration of 14C-radiolabeled peptide to mice; plasma, urine, feces by liquid scintillation counting and HPLC; format: in vivo, female Harlan athymic nude mice; conditions: mouse
Procedure: This example describes oral and intravenous administration of peptides of this disclosure. […] A peptide of SEQ ID NO: 27 was radiolabeled by the methods described in EXAMPLE 4, and was then administered intravenously or orally to female Harlan athymic nude mice, 6-8 weeks of age. Radiolabeled peptides of SEQ ID NO: 27 (SEQ ID NO: 27-r) was administered intravenously (IV) at a dose of 4.8 μCi/20 nmol. SEQ ID NO: 27-r was administered orally (PO) by oral gavage at a dose of 24 μCi/100 nmol. Mice were euthanized at various time points by CO2 asphyxiation and biological fluids were collected, including blood, urine, and feces. Samples were analyzed by RP-HPLC and liquid scintillation counting to quantify the concentration or dose of radioactivity and/or intact peptide recovered in plasma, urine, and feces. Urine was collected by abdominal palpitation immediately before CO2 asphyxiation. Blood was collected by cardiac puncture immediately after CO2 asphyxiation and centrifuged to separate plasma. Feces were collected either before or after CO2 asphyxiation by palpitation of the colon. Samples were analyzed by HPLC to quantify the concentration or dose of intact peptide recovered in plasma, urine, and feces. For HPLC analysis, urine samples were first diluted at a 1:20 ratio in water and plasma samples were diluted at a 1:5 ratio in water. Feces samples were dissolved in Tris buffer, centrifuged to remove the insoluble fraction, and supernatants were diluted at a 1:1 ratio in water.

[5] = Resistance to reduction by DTT, RP-HPLC; format: physicochemical; conditions: 10 mM DTT; HPLC vs non-reduced peptide
How it was run: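 Peptide (12.5 μg from a 2 mg/ml stock, or 0.015 mM final in PBS) was held 30 min at room temperature with or without 10 mM DTT. Reduced and non-reduced forms were compared by C-18 RP-HPLC using a 5–45% acetonitrile/0.1% TFA gradient over 10 min, with detection at 214 and 280 nm.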

[6] = SYPRO Orange melting assay; format: physicochemical; conditions: heating from 20° C. to 95° C.
Procedure: Protein secondary structures were assessed using Circular Dichrosim (CD). CD spectra were measured with a Jasco J-720W spectropolarimeter using a 1.0 mm path length cell. Protein samples in 10 mM phosphate buffer (pH=7.4) were at 25-30 μM protein concentration. Samples were analyzed at wavelength ranges of […]. Data were expressed in terms of relative ellipticity [θ]; (mdeg). To determine thermal stability of proteins, samples were subjected to incremental increase in temperature at a ramp of 2° C./min from 20° C. to 95° C. Stability and protein unfolding were monitored at 220 and 215 for α-helix and β-sheet secondary structures, respectively. Data are expressed in terms of relative ellipticity [θ], reported in mdeg. For SEQ ID NO: 43 and its point mutant variants, no changes to the α-helix-dominated structure were observed upon heating up to 95° C. […] Additionally, protein melting temperature (Tm) determination was performed by monitoring protein unfolding using SYPRO Orange dye (Molecular Probes). In brief, 0.1 mg/mL protein sample in 20 μL total volume PBS buffer were mixed with 24, of 10× SYPRO Orange dye. Dye intercalation into the hydrophobic protein core following protein unfolding was assayed using the C1000 Touch Thermal Cycler with CFX96 Deep Well Real-Time System (BioRad). Samples were heated from 20° C. to 95° C. with stepwise increments of 0.5° C. per minute and a 5 sec hold step for every point, followed by fluorescence reading. Tm were calculated by analyzing the derivatives of Relative florescence Units (RFU). FIG. 17D illustrates this SYPRO Orange melting assay of Peptides.

Molecule	combined resistance to reduction, pepsin and elevated temperatures such as 75° C. and 100° C. [2]	also measured
PDEYIERAKECCKKGDIQCCLRYFEESGDPNVMLICLFCP [SEQ ID NO: 122]	–	resistance to GSH reducing conditions [1]: resistant
GSGVPTDVKCRGSPQCIQPCKDAGMRFGKCMNGKCHCTPK [SEQ ID NO: 56]	not highly resistant	–
GSVVIGQRCYRSPDCYSACKKLVGKATGKCTNGRCDC [SEQ ID NO: 36]	not highly resistant	–
GSISIGIKCSPSIDLCEGQCRIRKYFTGYCSGDTCHCSG [SEQ ID NO: 3]	not highly resistant	resistance to incubation at 70° C. (in words) ([3]; 70° C. for 1 hour): resistant; resistance to incubation at 100° C. (in words) ([3]; 100° C. for 1 hour): various degrees of degradation
GSQVQTNVKCQGGSCASVCRREIGVAAGKCINGKCVCYRN [SEQ ID NO: 30]	not highly resistant	–
GSRPTDIKCSASYQCFPVCKSRFGKTNGRCVNGLCDCF [SEQ ID NO: 10]	highly resistant	–
GSQIDTNVKCSGSSKCVKICIDRYNTRGAKCINGRCTCYP [SEQ ID NO: 35]	not highly resistant	–
GSAVCNLKRCQLSCRSLGLLGKCIGDKCECVKHG [SEQ ID NO: 8]	not highly resistant	–
GSQVSTNKKCSNTSQCYKTCEKVVGVAAGKCMNGKCICYP [SEQ ID NO: 18]	not highly resistant	–
SEQ ID NO: 27-r: radiolabeled peptide of SEQ ID NO: 27, by reductive methylation with 14C formaldehyde (GSGVPINVKCRGSRDCLDPCKKAGMRFGKCINSKCHCTP; cysteine pairing not given here; also: radiolabeled by reductive methylation with 14C formaldehyde (sites not given here))	–	radioactivity in urine ([4]; IV 20 nmol and PO 100 nmol): some radioactivity from the administered peptide was detected; time up to which radioactive signal from the dosed peptide was present in plasma ([4]; IV 20 nmol and PO 100 nmol): at least 50 hours; plasma radioactivity as percent of the administered dose ([4]; IV, 20 nmol (4.8 μCi 14C)): ~10%; nature of radioactively detected peptide in plasma (intact vs fragments) ([4]; PO 100 nmol, tandem HPLC and liquid scintillation counting): nearly all of the radioactively detected peptide in plasma was due to fragments; intact peptide in feces ([4]; PO 100 nmol, tandem HPLC and liquid scintillation counting, 3 and 8 hours): detected; plasma radioactivity as percent of the administered dose ([4]; PO by gavage, 100 nmol (24 μCi 14C)): ~1%
GSQKILSNRCNNSSECIPHCIRIFGTRAAKCINRKCYCYP [SEQ ID NO: 6]	highly resistant	–
GSVRIPVSCKHSGQCLKPCKDAGMRFGKCMNGKCDCTPK [SEQ ID NO: 24]	highly resistant	–
GSNFKVEGACSKPCRKYCIDKGARNGKCINGRCHCYY [SEQ ID NO: 5]	not highly resistant	resistance to reduction by DTT (in words) [5]: resistant
B1	–	melting temperature (Tm) [6]: 79 °C

Reference: US20190375786A1, “STABLE PEPTIDES AND METHODS OF USE THEREOF” (Fred Hutchinson Cancer Research Center, priority 2016, published 2019)
